From US20170137467A1 (CHROMOTEK, published 2017)
Residue numbers refer to the chain shown, from its start.

T1: BC2T V7Q (human)
T1 construct: position 7 library, row Q
T1 peptide: Ac-PDRKAAQSHWQQ-NH2

T2: BC2T R3T (human)
T2 construct: position 3 library (BC2TR3X), row T
T2 peptide: Ac-PDTKAAVSHWQQ-NH2

T3: BC2T A6P (human)
T3 construct: position 6 library (BC2TA6X), row P
T3 peptide: Ac-PDRKAPVSHWQQ-NH2

T4: BC2T D2Q (human)
T4 construct: position 2 library, row Q
T4 peptide: Ac-PQRKAAVSHWQQ-NH2

T5: BC2T P1T (human)
T5 construct: position 1 library, row T
T5 peptide: Ac-TDRKAAVSHWQQ-NH2

T6: BC2T P1R (human)
T6 construct: position 1 library, row R
T6 peptide: Ac-RDRKAAVSHWQQ-NH2

T7: BC2T P1D (human)
T7 construct: position 1 library, row D
T7 peptide: Ac-DDRKAAVSHWQQ-NH2

T8: BC2T A6F (human)
T8 construct: position 6 library (BC2TA6X), row F
T8 peptide: Ac-PDRKAFVSHWQQ-NH2

T9: BC2T W10M
T9 construct: positional scanning library member
T9 peptide: Ac-PDRKAAVSHMQQ-NH2

T10: BC2T W10F
T10 construct: positional scanning library member
T10 peptide: Ac-PDRKAAVSHFQQ-NH2

T11: BC2T Q12N
T11 construct: positional scanning library member
T11 peptide: Ac-PDRKAAVSHWQN-NH2

T12: BC2T Q11S
T12 construct: positional scanning library member
T12 peptide: Ac-PDRKAAVSHWSQ-NH2

T13: BC2T Q11M
T13 construct: positional scanning library member
T13 peptide: Ac-PDRKAAVSHWMQ-NH2

T14: BC2T S8G
T14 construct: positional scanning library member
T14 peptide: Ac-PDRKAAVGHWQQ-NH2

T15: BC2T Q12K
T15 construct: positional scanning library member
T15 peptide: Ac-PDRKAAVSHWQK-NH2

T16: BC2T S8W
T16 construct: positional scanning library member
T16 peptide: Ac-PDRKAAVWHWQQ-NH2

T17: BC2T W10H
T17 construct: positional scanning library member
T17 peptide: Ac-PDRKAAVSHHQQ-NH2

T18: BC2T H9Y
T18 construct: positional scanning library member
T18 peptide: Ac-PDRKAAVSYWQQ-NH2

T19: BC2T Q12G
T19 construct: positional scanning library member
T19 peptide: Ac-PDRKAAVSHWQG-NH2

B1: BC2 nanobody (BC2-Nb) (VHH)
VHH: QVQLVESGGGLVQPGGSLTLSCTASGFTLDHYDIGWFRQAPGKEREGVSCINNSDDDTYYADSVKGRFTIFMDNAKDTVYLQMNSLKPEDTAIYYCAEARGCKRGRYEYDFWGQGTQVTVSS
notes: immobilised on agarose/sepharose beads in this assay; also called BC2 nanotrap (immobilised form); not shown: C-terminal 6xHis-tag added by pHEN6 vector
B2: BC2 nanobody (VHH)
VHH: B1 VHH
notes: immobilised on beads in this assay; also called BC2-Nb; BC2 nanotrap (immobilised)
B3: BC2-NbR106S (VHH)
VHH: B1 VHH with R106S
notes: headlock mutant of BC2-Nb; immobilised on beads in this assay
B4: BC2-NbR106S (VHH)
VHH: B1 VHH with R106S
notes: immobilised on beads in this assay; not shown: C-terminal 6xHis-tag added by pHEN6 vector

What was measured:
[1] = biological target: T1, BC2T V7Q; assay: library pulldown, LC-MS of supernatant; ratio vs GFP-Nb control (0=captured, 1=not captured)
Excerpt: (§1) In total, 12 different BC2T libraries displaying all 20 proteinogenic amino acids in one single position of the peptide were used in immunoprecipitation experiments. […] The direct comparison with the GFP-Nb made it possible to determine the quantitative degree of peptide capture without the need of labeled standards. […] The more peptide was captured the more the value approximates 0. It was not possible to discriminate between isoleucine (I) and leucine (L) peptide versions since these peptides are isobaric.
(§2) To investigate the binding specificity of the BC2T and derived mutants peptide libraries for each amino acid position of the sequence […] (SEQ ID NO:4) were synthesized with acetyl and amide groups located at the N-termini or C-termini respectively (Intavis). […] Incubations were performed in 300 μl PBS/0.01% CHAPS for 1 h on a HulaMixer (Life Technologies). Subsequent to a centrifugation step 10 μl supernatant were analyzed in a LC-MS procedure. Peptides were separated using an UltiMate3000 RSLCnano System (Thermo Scientific), composed of a C18 PepMap100μ-Precolumn (300 μm×5 mm; particle size: 5 μm; pore size: 100 Å—Thermo Scientific) and a C18 analytical column (Acclaim Rapid Separation LC (RSLC) Column: 150 mm×5 mm; particle size: 2.2 μm; pore size: 100 Å—Thermo Scientific). A step gradient was applied starting at 8% and ending after 20 min at 30% eluent B (80% acetonitrile, 20% H₂O, 0.1% formic acid).

[2] = biological target: T2, BC2T R3T; assay: as above
Excerpt: as §1, §2

[3] = biological target: T3, BC2T A6P; assay: as above
Excerpt: as §1, §2

[4] = biological target: T4, BC2T D2Q; assay: as above
Excerpt: as §1, §2

[5] = biological target: T5, BC2T P1T; assay: as above
Excerpt: as §1, §2

[6] = biological target: T6, BC2T P1R; assay: as above
Excerpt: as §1, §2

[7] = biological target: T7, BC2T P1D; assay: as above
Excerpt: as §1, §2

[8] = biological target: T8, BC2T A6F; assay: as above
Excerpt: as §1, §2

[9] = biological target: T9, BC2T W10M; assay: positional peptide library pulldown on immobilised Nb, LC-MS of supernatant; signal ratio to control GFP-Nb (1 = not captured, near 0 = captured)
How it was run: (§3)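 Unbound peptide left in supernatant after 1 h pulldown in PBS/0.01% CHAPS measured by reversed-phase LC-MS (8–30% eluent B gradient, 20 min).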

[10] = biological target: T10, BC2T W10F; assay: as above
How it was run: as §3

[11] = biological target: T11, BC2T Q12N; assay: as above
How it was run: as §3

[12] = biological target: T12, BC2T Q11S; assay: as above
How it was run: as §3

[13] = biological target: T13, BC2T Q11M; assay: as above
How it was run: as §3

[14] = biological target: T14, BC2T S8G; assay: as above
How it was run: as §3

[15] = biological target: T15, BC2T Q12K; assay: as above
How it was run: as §3

[16] = biological target: T16, BC2T S8W; assay: as above
How it was run: as §3

[17] = biological target: T17, BC2T W10H; assay: as above
How it was run: as §3

[18] = biological target: T20, BC2T W10(I/L1) (N-terminal acetyl; C-terminal amide); assay: as above
T20 construct: positional scanning library member; I or L not resolved
How it was run: as §3

[19] = biological target: T18, BC2T H9Y; assay: as above
How it was run: as §3

[20] = biological target: T19, BC2T Q12G; assay: as above
How it was run: as §3

[21] = biological target: T21, BC2T H9(I/L1) (N-terminal acetyl; C-terminal amide); assay: as above
T21 construct: positional scanning library member; I or L not resolved
How it was run: as §3

Binder | ratio [1] | ratio [2] | ratio [3] | ratio [4] | ratio [5] | ratio [6] | ratio [7] | ratio [8] | ratio [9] | ratio [10] | ratio [11] | ratio [12] | ratio [13] | ratio [14] | ratio [15] | ratio [16] | ratio [17] | ratio [18] | ratio [19] | ratio [20] | also measured
B1 | 0.4 | 0.3 | 1.1 | 0.1 | 0.5 | 0.2 | 1 | 1 |  |  |  |  |  |  |  |  |  |  |  |  | 
B2 |  |  |  |  |  |  |  |  | 1 | 0.9 | 0.1 | 0.1 | 0.1 | 0.5 | 0 | 0.6 | 1 | 1 | 0.1 | 0.2 | ratio [21]: 0.3
B3 |  |  |  |  |  |  |  |  | 1.1 | 1.1 | 0.2 | 0.2 | 0.3 | 0.9 | 0.1 | 0.9 | 1.1 | 1.1 | 0.2 | 0.4 | ratio [21]: 0.5
B4 | 0.5 | 0.8 | 1 | 0.2 | 0.7 | 0.4 | 0.8 | 0.9 |  |  |  |  |  |  |  |  |  |  |  |  | 
